B1: antibody F (antibody, V domains shown)
VH: EVQLVQSGAEVKKPGESLKISCKGSGYTFSNYWIEWVRQMPGKGLEWMGEILPGSDSIKYEKNFKGQVTISADKSISTAYLQWSSLKASDTAMYYCARRGNYVDDWGQGTLVTVSS
VL: EIVLTQSPGTLSLSPGERATLSCRSSQSLVHSNQNTYLHWYQQKPGQAPRLLIYKVDNRFSGIPDRFSGSGSGTDFTLTISRLEPEDFAVYYCSQSTLVPLTFGGGTKVEIK
notes: heavy chain V-region; mouse gamma-1 IgG heavy chain constant region (from the expression vector); light chain V-region; mouse kappa light chain constant region (from the expression vector); source: CHOSXE cell line, electroporated, purified (Protein A, gel filtration); copies: 2 + 2
B2: antibody B (antibody, V domains shown)
VH: EVKVEESGGGLVQPGGSMKLSCVVSGFTFSNYWVNWVRQSPEKGLEWVAQIRLKSDNYATHYEESVKGRFTISRDDSKSSVYLQMNNLRAEDSGIYYCTNWEDYWGQGTTLTVSS
VL: DIVLTQSPASLAVSLGQRATISCRASQSVSTSRYSYIHWYQQKPGQPPKLLIKYASNLESGVPARFSGSGSGTDFTLNIHPLEEEDAATYYCHHSWEIPLTFGAGTKLELK
notes: as for B1
B3: antibody A (antibody, V domains shown)
VH: EVHLVESGGALVKPGGSLKLSCAASGFSFSKYGMSWVRQTPDKRLEWVATISSSGSRTYYPDSVKGQFTISRDNAKNTLYLQMSSLKSEDTAMYYCSISWDGAMDYWGQGTSVTVSS
VL: DVLMTQTPLSLPVSLGDQASISCKSSQSIVHSNGNTYLEWYLQKPGQSPKLLVYKVSNRFSGVPDRFSGSGSGTDFTLKISRVEAEDLGTYYCFQGSLVPWAFGGGTKLEIK
notes: as for B1

Target: T1, monomeric recombinant Tau (2N4R) (Homo sapiens (Human)., UniProt P10636-8)
T1 construct: Tau (microtubule-associated protein Tau), isoform 2N4R, 441 amino acids; gene synthesized by DNA2.0; also called Tau monomer; monomeric Tau; source: Expi293 expression system, purified from culture medium (Ni Sepharose Excel, TEV cleavage, second Ni Sepharose Excel); not shown: 10His-TEV, N-terminal, cleaved
T1 sequence (P10636 other isoform, or with tags, fused parts or gaps): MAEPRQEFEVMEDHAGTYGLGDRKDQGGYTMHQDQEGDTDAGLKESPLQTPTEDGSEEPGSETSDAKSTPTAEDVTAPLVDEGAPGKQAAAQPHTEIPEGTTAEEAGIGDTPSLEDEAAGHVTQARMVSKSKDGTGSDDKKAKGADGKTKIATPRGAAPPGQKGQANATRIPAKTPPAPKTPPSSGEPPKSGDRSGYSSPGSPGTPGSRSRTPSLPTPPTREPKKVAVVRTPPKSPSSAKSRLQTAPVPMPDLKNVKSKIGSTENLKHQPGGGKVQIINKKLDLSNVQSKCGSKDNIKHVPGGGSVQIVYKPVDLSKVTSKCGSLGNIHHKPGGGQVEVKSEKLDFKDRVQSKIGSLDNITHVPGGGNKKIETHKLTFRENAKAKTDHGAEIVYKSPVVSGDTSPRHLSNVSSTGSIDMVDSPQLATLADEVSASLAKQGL
Test: SPR; monomeric recombinant Tau and full-length IgG; BIAcore T200, 25 °C; extrinsic affinity; who was immobilised is not told for the monomer
Conditions: both partners purified

Row | Binder | Kd | koff | kon
1 | B1 | 117 nM | 0.0205 s⁻¹ | 180000 M⁻¹ s⁻¹
2 | B2 | 20.7 nM | 0.000953 s⁻¹ | 50000 M⁻¹ s⁻¹
3 | B3 | 0.16 nM | 5.2e-05 s⁻¹ | 360000 M⁻¹ s⁻¹

Reference: article PMC6208734, “Epitope determines efficacy of therapeutic anti-Tau antibodies in a functional assay with human Alzheimer Tau” (Acta Neuropathologica, 2018)
